For one series, the target named is His6-MBP tag alone (UniProt P0AEX9 27-392). The series is described as follows: EMSA; tag-only control; EMSA buffer not given in the material; Bind-n-seq: 20 mM Tris-HCl pH 8, 1 mM TCEP, 2% glycerol, 1 mM EDTA (binding buffer A) plus MgCl2, BSA and 0-500 mM KCl, room temperature 2 h. The note with it: protein: recombinant; tags: His6-MBP; label: DIG; blunt.
For the next series, the target named is YipR (His6-MBP fusion) (Xanthomonas campestris pv. campestris …, UniProt A0A0H2XAU1 1-344). The series is described as follows: EMSA; EMSA buffer not given in the material; Bind-n-seq: 20 mM Tris-HCl pH 8, 1 mM TCEP, 2% glycerol, 1 mM EDTA (binding buffer A) plus MgCl2, BSA and 0-500 mM KCl, room temperature 2 h. The note with it: protein: recombinant; tags: His6-MBP; label: DIG; blunt.
Sequence of YipR (His6-MBP fusion) (A0A0H2XAU1 whole entry, the tested form may be a part): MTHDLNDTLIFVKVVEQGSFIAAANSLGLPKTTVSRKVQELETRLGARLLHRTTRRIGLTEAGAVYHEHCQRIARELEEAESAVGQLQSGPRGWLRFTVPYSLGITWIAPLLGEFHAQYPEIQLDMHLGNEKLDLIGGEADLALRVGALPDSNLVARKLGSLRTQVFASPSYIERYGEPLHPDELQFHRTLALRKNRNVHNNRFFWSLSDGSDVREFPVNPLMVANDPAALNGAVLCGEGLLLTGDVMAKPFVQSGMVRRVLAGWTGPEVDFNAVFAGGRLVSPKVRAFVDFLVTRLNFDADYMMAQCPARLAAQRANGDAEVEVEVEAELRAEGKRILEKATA

This is an account of results in article PMC6941359, “An improved bind-n-seq strategy to determine protein-DNA interactions validated using the bacterial transcriptional regulator YipR”.

B1: XC_2633P (dsDNA)
DNA 1: CCGGCTTTATCCAGATCGCCGACCTGCACCCAGGACCCAGCGGCTTGCTGACGCCCTTCAAGGACACACGGATGTGGATAGCGGGGTTCAAGCCCGACGGGAACCGCGACAAGTAACCCGGCCTCCTACTTCCCAATCCCTCTC
DNA 2: GAGAGGGATTGGGAAGTAGGAGGCCGGGTTACTTGTCGCGGTTCCCGTCGGGCTTGAACCCCGCTATCCACATCCGTGTGTCCTTGAAGGGCGTCAGCAAGCCGCTGGGTCCTGGGTGCAGGTCGGCGATCTGGATAAAGCCGG
With B1, the binding result was “no binding” in the series with His6-MBP tag alone and “binds” in the series with YipR (His6-MBP fusion).
